# Assay results as given in the DeepSol protein solubility set.
# Assay: soluble on expression in E. coli; label from the status in PepcDB or PDB records
row,Sequence,soluble on expression in E. coli
1,MVKQVFNFNAGPSALPKPALERAQKELLNFNDTQMSVMELSHRSQSYEEVHEQAQNLLRELLQIPNDYQILFLQGGASLQFTMLPMNLLTKGTIGNYVLTGSWSEKALKEAKLLGETHIAASTKANSYQSIPDFSEFQLNENDAYLHITSNNTIYGTQYQNFPEINHAPLIADMSSDILSRPLKVNQFGMIYAGAQKNLGPSGVTVVIVKKDLLNTKVEQVPTMLQYATHIKSDSLYNTPPTFSIYMLRNVLDWIKDLGGAEAIAKQNEEKAKIIYDTIDESNGFYVGHAEKGSRSLMNVTFNLRNEELNQQFLAKAKEQGFVGLNGHRSVGGCRASIYNAVPIDACIALRELMIQFKENA,soluble
2,MVKSAVLGFPRIGKNRELKKATEAYWSGKTSAEELLATAKQLRLEHWKLQKAQGVDIIPSNDFSLYDQIMDHSFSFNVIPPRYRLSGLSSLDTYFAMGRGMQRAATADKAAVDVPAGEMVKWFDSNYHFLRPEVSEETDFKLSSTKALDEFLEAKEAGIITRPVLVGPVTYLFIAKAAKGSSIKPIELLPKLLPVYVELIKKLTEAGAEYIQIDEPILTLDLPQEILASYKEAYETLGKIGKLILTTYFGSLQSNADVLKGLPIAGVHVDVVRAPENLDRALAVLGENQIISVGVVSGRNIWKTDFQKATAIIEKAISAVGSERVQVASSSSILHIPHSLSGEDQINPEIKRWFAFAVEKCAELAILTKAANDGPASVRAELEANAADCKARAESPITNVEAVRERQSKVTPQMHERKSPFETRYAKQQASLKLPLFPTTTIGSFPQTKEIRVTRNRFAKGLISQEEYDAFIRKEISDVVKFQEEVGLDVLVHGEPERNDMVQYFGERMEGFVFTVNGWVQSYGSRCVRPPIIVGDVYRPAPMTVKESQYAQSITSKPMKGMLTAPITILRWSFPRDDVHDSVQAQQIALGLRDEVLDLEKAGIKVIQCDEPALREGLPLRRAEWDEYLKWAIDAFRLATAAVQDDTQIHSHFCYSDFNDIFDAIQRLDADVVSIENSKSDMKLLNVLSRYTSCIGPGLFDIHSPRVPPVSEFKERIDAIVKHVPKDHLWLNPDCGLKTRGWPETTADLKNMIAAAREAREQYA,soluble
3,MVKSIVILIETVTMKIPAVYSDGSFKTFNDSETTAQKLVDSGVVNTFAFGPTLVENGKVAVSENEEVGQDMADNPRTAIVVNEESDRSVHYIVIVSDGRTSESSGLTLYEMAELMKSYGVMTGYNLDVGDSSTMYSNGQVINKPTRKRKQNLRKGGERYRLHRLLKNLLASTFSPPILVLEHHHHHH,soluble
4,MVKSPGASPERKKVKIDVYPMVVKDPQAREINETLLFDYTTALSSFETPTEEQLLVSEGDAFRHHPNEDVEQYFRASAQWGVPAIAWNIVRPAFLWKLEFCITEFMNVEKKKKEAAANSAQANSEVEKIAESPVKEKLSILGHKVNLIKTTPVVFSTEESMEFVLSKAKSFDGFPFTWQRLCELLIEPMRHYNTIDKFLRAVDKVINVVTTINENGGRSFGDWDLPNSQQFHLENTFFGVVDEVEMMELEKVKHDFQSSSSPSEEPLDMSQKSMPAPRVSTASPDPPSFVLPTARSPINTSPSSSPKASSPKASSPKAASPVSSPKSPVIQDQSPKKEDAKEGEGEIVHEEEMPEETLEVETKNEVNKEDADMEIGAE,not soluble
5,MVLASSSAFALKDDVNQPINIVSDNQSLDMEKSVVTFTDNVVITQGSIVIKANKVVITRPAEKSGKKETVEAFGTPVTFHQQLDNGKPVDGKANKVHYDLGNEFLTLTNNAELKQLDSKINGSVITYDVKKQQLKANGNGKSRVTTVLIPSQLQQAKGK,not soluble
6,MVMEDNESCASRVIFDALPTSQATMDRRERIKMEVFDEVLRRLRQSDIEDAHLPGFEDDLWNHFNRLPARYALDVNVERAEDVLMHKRLLHSAYDPQNRPAIEVHLVQVQPAGISADLDSTSNDAGHSSPTRKSIHPPPAFGSSPNLEALALAASLSQDEDADNSVHNNSLYSRPLHEITFSTEDKPKLLFQLTALLAELGLNIQEAHAFSTTDGYSLDVFVVDGWPYEETERLRISLEKEAAKIELQRPDFSEIIEQLQEIAKEVGEEGEEKKKSSTGLGGGIFAALRRSTTHH,soluble
7,MVMKREVVGYTTMSEHLIDTQLTRSPFFFASANQSMLGCGVAHAFQQAIPFAELANQAKQLLQQAKRDECDNPLLFGIVPFDPKTPTRFMIPRTLYVSSSPRLNRPAHLTRQVAKLISSPSGEQYKQGVSHLLNMFHHSGLSKVVLSRAIEIATEQEIALPTLLRSLLAINHHGYTFAASLDEQRKLIGASPELLVAKRGNYLISNPLAGSRPRSQDAQENAQRRASLLNTAKDLHEHGLVVEEVERIMSRYCRNLYTPMVPSVIETETMLHLSTLLEGQVSDPEVCALQVAADLHPTPAVCGFPRESAYQAIRELEEFDRGYFTGMVGWCDARGNGEWVVTIRCAEVGSHQMKLFAGAGIVDESLPQSELEETGAKMKTILAAAGIELNDVLTA,not soluble
8,MVMTVRVIAPDKTVWDAPAEEVILPSTTGQLGILSNHAPLLTALETGVMRVRQDREWVAIALMGGFAEVENNEVTILVNGAERGDTIDPQEAQQTLEIAEANLRKAEGARQKIEANLALRRARTRVEASNTISS,soluble
9,MVNYENVIVTEITETLTFFAQSVESGSKLESLMSKLHADFQSNPPIAGSYTPKRGDLVAAQFTLDNQWYRAKVERVQGSNATVLYIDYGNKETLPTNRLAALPPAFSSEKPYATEYALALVALPTDNEDKEEALRAFSEDVLNHKVQLNVELKVTGSPNLATLRDPTTKVDFGKQLVAEGLVLAEQRGERKLKELVDQYKAAQEAARVAHLAIWKYGD,soluble
10,MVPPKLKQALELFKSLPKELRSQVLLEYAAKVPPPPPGVELERVHECQTPFFVHADVEGGKVRLYFHVPDEAPTVKAFAGLLREGLEGESPEAVLEVPPGFYRGYGLEEFFTPLRLRGLEAALLRLQAQVRKALTS,soluble
11,MVPRTSSSNPTLRKTSPTMADIDITRSHSLGLDDGRAAVGRVADKLETELGVDAEWTGDTLQFSGQGADGHIEVEADAVHVAINLSAFLQPMRSRVQAEAEDYLDQSLQSQS,not soluble
12,MVQDQIRYDILVQDALRGVIRKVLSEVAKAGLPGSHHFFITFLTNAPGVKISTRLKSRYPEQMTIVLQHQFRDLNVSETAFEVTLSFREVSEKLVIPFHSIQVFYDPVAAFEAAFDLPSNLNSKEGENLENIASTPVILSDTQKKEKKFPKEQISKTNKDSSNNDTKQSADVVSLDSFRKKLEHHHHHH,soluble
13,MVQQQQQSQQRMMELHERNDREKLARKTEKEREEERRKQEDDKILQLEKKLEEFQENARFIGDLASNFQTKYQDALNGRIYTLVRGLQDLDRMKGTFSDKKVPLDLLPYLDDGKNPCLYSKHCMEKTLEKNKAVNGKIEIYKKFRAHLMKEFSEEMPDLVMYYRSIREDLDLS,not soluble
14,MVQRLISANASEIKRMSKEELFQSIKASEGRVILSENVVVHPSVAGDITCAEMSKAYGADMILLNVFDVNQPIVVAAYEGQYTAETCVPNDEVVHRLKELVGLPIGMNVEPVDENLDLASTRVSIEPGRKASAATFKKANELGLDFILLTGNPGTGVTNDLIAKNVALAKKHFDGIIIAGKMHSSGVDEPVVSLKSAEQFIEAGADIVLVPAVGTVWGIDDQQVKEVVDFAHSKGKLVMSAIGTSQESAQPEVIQAIGIRNKILGVDIQHIGDANMGLVGIENIKELSDAIRGKRHTVARMARSINR,not soluble
15,MVRDMRFCYRCGISEEEGGPLINGLCQVCFRKENPVLLLPSEINTELCQNCGSYKKRGVWVDPKNYELEALIFEVAENALLEALEDNLKVKDFEVVNWEELDEISEIPVGKAFVAYRVVDYHIEYFPAIVIYEVRSKARIHELQVEPHDERTTVTVYVRQTVCPRCQKFLAGYYEAILQVRVEGREFTKEEREEITKLVQEKVDEIMKRDRMGFIQDTIEKEEGIDFYMGSTSAARKLANAIREKYGGTISEAYELVGMDRQTSREVYRTSVTVRLPKFRKGDVVEDRYGRVYEVEEVNGKGMRLKNLETWKSEHYDWKTIKRERVDLANYEEKKAMLVSKTPSEVQFMDMETYETFEVKKPTDELKEGEVYTVVRVKGRMYVKEEVKELEHHHHHH,soluble
16,MVRKGRQHTEEALQEPRADRDRDVPNHIRGQAEQGVGARALQEGRGERAPQDTPAARGGRARGEGAREGEDYIARWEKPPRHHRQGDNGGARQDQARAGEVPLDLLILILIGP,soluble
